In the assay the target is human IL-12 receptor on cells (human) (UniProt P42701). Nature of the assay: cell-based or functional assay.
human IL-12 receptor on cells (human), sequence (Q99665 24-862, chain 2 of 2, other chains not shown): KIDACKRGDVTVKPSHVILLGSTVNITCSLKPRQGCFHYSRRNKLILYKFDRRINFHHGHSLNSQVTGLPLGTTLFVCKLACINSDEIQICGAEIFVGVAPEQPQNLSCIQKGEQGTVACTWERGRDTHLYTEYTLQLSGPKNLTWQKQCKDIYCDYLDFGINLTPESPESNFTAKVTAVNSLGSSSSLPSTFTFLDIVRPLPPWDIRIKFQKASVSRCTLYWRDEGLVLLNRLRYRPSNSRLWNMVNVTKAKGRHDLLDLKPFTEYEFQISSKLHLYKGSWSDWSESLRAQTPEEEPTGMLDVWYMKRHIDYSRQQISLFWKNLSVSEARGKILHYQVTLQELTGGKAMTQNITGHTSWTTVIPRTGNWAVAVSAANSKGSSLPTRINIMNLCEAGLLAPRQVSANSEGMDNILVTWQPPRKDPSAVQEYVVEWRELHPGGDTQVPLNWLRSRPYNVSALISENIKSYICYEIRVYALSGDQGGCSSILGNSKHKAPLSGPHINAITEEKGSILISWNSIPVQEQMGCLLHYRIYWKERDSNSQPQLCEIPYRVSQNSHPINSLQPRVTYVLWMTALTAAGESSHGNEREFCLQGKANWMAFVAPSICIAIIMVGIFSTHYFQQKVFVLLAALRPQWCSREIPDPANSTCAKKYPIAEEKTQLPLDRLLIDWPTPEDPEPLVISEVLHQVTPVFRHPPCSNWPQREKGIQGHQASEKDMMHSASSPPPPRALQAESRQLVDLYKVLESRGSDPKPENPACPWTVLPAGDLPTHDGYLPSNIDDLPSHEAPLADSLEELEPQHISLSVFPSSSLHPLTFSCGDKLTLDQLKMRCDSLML

As for WT IL-12 (row of Table 10), the EC50 (ug/ml) hIL12R+ PD1+ cells (pSTAT4 reporter cell line, PD1-positive) was 0.03 µg/ml and the EC50 (ug/ml) hIL12R+ cells (pSTAT4 reporter cell line, PD1-negative) worked out at 0.1 µg/ml.
